Test results taken from patent US8318708B2, “Use of vitamin D receptor agonists, ligands, and precursors to treat pancreatic fibrosis” (Salk Institute for Biological Studies, priority 2007, dated 2012).

Assays:
VDR [1] = target: T1, VDR (Rattus norvegicus, UniProt P13053); assay: QPCR of VDR, Cyp24a1 and Hnf4α mRNA in primary rat hepatocytes; format: cell-based; design: endogenous in cells; host or cells: primary rat hepatic stellate cells, sinusoidal endothelial cells, Kupffer cells and hepatocytes (Sprague-Dawley rats); conditions: 24 hours, TGF-β1 2 ng/mL, calcitriol 10 nM
T1 sequence (P13053 1-423): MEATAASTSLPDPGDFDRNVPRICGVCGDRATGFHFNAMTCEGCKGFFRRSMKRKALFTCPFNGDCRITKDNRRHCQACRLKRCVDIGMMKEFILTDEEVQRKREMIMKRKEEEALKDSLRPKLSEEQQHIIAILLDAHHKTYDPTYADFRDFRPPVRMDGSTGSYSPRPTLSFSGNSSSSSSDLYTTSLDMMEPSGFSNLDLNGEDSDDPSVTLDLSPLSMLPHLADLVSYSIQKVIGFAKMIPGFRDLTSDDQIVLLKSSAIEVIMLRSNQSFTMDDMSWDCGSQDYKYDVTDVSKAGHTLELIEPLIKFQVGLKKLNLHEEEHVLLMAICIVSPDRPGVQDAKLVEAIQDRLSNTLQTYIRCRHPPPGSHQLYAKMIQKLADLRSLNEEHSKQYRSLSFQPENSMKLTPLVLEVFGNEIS

VDR [2] = target: T2, VDR (Homo sapiens, UniProt P11473); assay: Real-time qPCR of CYP24A1 in human LX-2 cell line; format: cell-based; conditions: LX-2 cells overnight; 1,α25(OH)2D3 1 nM, TGF β1 100 pM
T2 construct: endogenous in cells; host or cells: human LX-2 hepatic stellate cell line
T2 sequence (P11473 1-427): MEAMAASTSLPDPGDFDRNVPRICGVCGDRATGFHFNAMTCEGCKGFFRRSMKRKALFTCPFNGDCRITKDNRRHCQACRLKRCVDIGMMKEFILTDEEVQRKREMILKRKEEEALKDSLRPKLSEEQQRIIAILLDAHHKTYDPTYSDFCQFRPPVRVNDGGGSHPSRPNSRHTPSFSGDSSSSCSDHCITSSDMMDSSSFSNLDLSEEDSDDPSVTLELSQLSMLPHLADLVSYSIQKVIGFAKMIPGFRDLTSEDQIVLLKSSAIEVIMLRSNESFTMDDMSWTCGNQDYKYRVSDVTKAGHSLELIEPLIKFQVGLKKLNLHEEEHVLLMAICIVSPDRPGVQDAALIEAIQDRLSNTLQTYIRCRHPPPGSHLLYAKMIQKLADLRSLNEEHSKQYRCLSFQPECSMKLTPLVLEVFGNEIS
Protocol: Human LX-2 cells were grown to 50% confluence in DMEM with 10% FBS in 6-Well plates.
For qRT-PCR, 500 ng of deoxyribonuclease-treated total RNA was reverse transcribed into cDNA using SuperScript™ III reverse transcriptase essentially as described by the manufacturer (Invitrogen). Quantification of gene of interest mRNA was performed using a Rotor-Gene, RG 6000 (Corbett Research). […] Human B2M primers were from Applied Biosystems.
TGFβ signaling is the key mediator in hepatic fibrogenesis, triggering the transition of HSCs into myofibroblast-like cells and thereby stimulating synthesis of ECM proteins. Thus, TGFβ1 is produced locally in the organ as part of the fibrotic process It has been previously reported that TGFB signaling can influence the activity of VDR-dependent genes, as depicted in (FIG. 8A). In this model, TGFβ activation results in SMAD3 phosphorylation, inducing its translocation into the nucleus where it associates with the ligand bound VDR complex. Phosphorylated SMAD3 acts as a co-activator in the VDR/vitaminD3 complex enhancing the transcriptional potential of VDR on target genes. To understand the interplay between TGFB and VDR signaling pathways, the effects of TGFβ on the well characterized VDR gene target Cyp24α1 were examined.

TGF-β1: transforming growth factor beta 1; human recombinant from Sigma-Aldrich T7039
Cyp24a1 mRNA expression (VDR [1]): no effect | HNF4α expression (VDR [1]): some increase | VDR mRNA expression (VDR [1]): capable of inducing | CYP24a1 gene expression (QPCR, normalized to 36B4) (VDR [2]): no effect
